Patent US20170196940A1 (RESEARCH FOUNDATION FOR THE STATE UNIVERSITY OF NEW YORK, published 2017)
Positions of bridges follow the written chain, without caps; N, C: chain ends. Non-standard residues stand in square brackets, D forms with d. No end group written: not given here. Bph = 4,4'-bis(methyl)biphenyl crosslink between two cysteines (CL-1)

What was measured:
Assay in all cases: cell-based or functional assay
[1] = target: T1, human glucagon-like peptide 1 receptor (GLP-1R) (human, UniProt P43220 24-463)
[2] = target: T2, human glucagon receptor (GCGR) (human, UniProt P47871 26-477)
T2 sequence (P47871 26-477): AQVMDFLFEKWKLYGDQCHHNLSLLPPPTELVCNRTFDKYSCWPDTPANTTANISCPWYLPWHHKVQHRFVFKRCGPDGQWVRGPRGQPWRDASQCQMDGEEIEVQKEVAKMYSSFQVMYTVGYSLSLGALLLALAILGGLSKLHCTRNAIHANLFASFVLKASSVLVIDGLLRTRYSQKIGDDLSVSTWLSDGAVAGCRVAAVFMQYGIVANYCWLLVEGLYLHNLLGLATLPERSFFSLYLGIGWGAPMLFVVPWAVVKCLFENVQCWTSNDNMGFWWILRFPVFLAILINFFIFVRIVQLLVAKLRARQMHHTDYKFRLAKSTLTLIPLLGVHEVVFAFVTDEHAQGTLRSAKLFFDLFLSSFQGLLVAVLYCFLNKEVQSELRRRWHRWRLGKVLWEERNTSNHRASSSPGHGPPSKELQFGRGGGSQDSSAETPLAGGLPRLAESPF

[3] = target: T1, human glucagon-like peptide 1 receptor …; remark: listed apart in the source
[4] = target: T2, human glucagon receptor (GCGR); remark: listed apart in the source

Agonist activity (nM), EC50, CRE-luciferase reporter in HEK293 cells overexpressing the receptor [1] [nM] | Agonist activity (nM), EC50, CRE-luciferase reporter in HEK293 cells overexpressing the receptor [2] [nM] | Binder | also measured
~400 |  | H[dS]QGTFTSDYSKYLDECRAQDFVCWLMNTKRNRNNIA-NH2 (cysteine pairing not given here) [peptide 5] | 
 | 30 | H[dS]QGTFTSDYSKYLDECAAKEFICWLMNTKRNRNNIA-NH2 (cysteine pairing not given here) [peptide 7] | fold higher potency against peptide 5, CRE-luciferase reporter assay [3]: > 80 fold
~500 | 30 | H[dS]QGTFTSDYSKYLDSCRAQDFVCWLMNTKRNRNNIA-NH2 (cysteine pairing not given here) [peptide 4] | fold increase in activity against peptide 1, CRE-luciferase reporter assay [3]: ~2 fold; fold increase in activity against peptide 1, CRE-luciferase reporter assay [4]: ~2 fold
0.2 | 0.7 | H[dS]QGTFTSDYSKYLDECAAKEFICWLMNTKRNRNNIA-NH2 (linker 17-24 via Bph) [peptide 9] | fold increase in activity against linear peptide 7, CRE-luciferase reporter assay [3]: 80 fold; fold increase in activity against linear peptide 7, CRE-luciferase reporter assay [4]: 40 fold
 | 1000 | H[dS]QGTFTSDYSKYLDECAVRLFICWLMNTKRNRNNIA-NH2 (cysteine pairing not given here) [peptide 8] | fold higher potency against peptide 5, CRE-luciferase reporter assay [3]: > 80 fold
~500 | 3 | H[dS]QGTFTSDYSKYLDS[dC]RAQDFVCWLMNTKRNRNNIA-NH2 (linker 17-24 via Bph) [peptide 3] | fold increase in activity against linear peptide 1, CRE-luciferase reporter assay [3]: 2 fold; fold increase in activity against linear peptide 1, CRE-luciferase reporter assay [4]: 16 fold
> 2000 | > 1000 | H[dS]QGTFTSDYSKYLDSRRAQ[dC]FVQWLMCTKRNRNNIA-NH2 (cysteine pairing not given here) [peptide 2] | 
